Source: paper PMC8003784, “Two Key Amino Acids Variant of α-L-arabinofuranosidase from Bacillus subtilis Str. 168 with Altered Activity for Selective Conversion Ginsenoside Rc to Rd” (Molecules, 2021)
Changes are numbered by the printed parent chain. Names may count otherwise.

Substrate: O=[N+]([O-])c1ccc(O[C@@H]2O[C@@H](CO)[C@H](O)[C@H]2O)cc1
Experiment: purified protein
Assay type: biochemical, Bacillus subtilis
Conditions: pH 5, 40 °C, 50 mM citric acid/sodium citrate

B1: BsAbfA (Bacillus subtilis subsp. subtilis str. 168) (protein)
chain: MKKARMIVDKEYKIGEVDKRIYGSFIEHMGRAVYEGIYEPDHPEADEDGFRKDVQSLIKELQVPIIRYPGGNFLSGYNWEDGVGPVENRPRRLDLAWQTTETNEVGTNEFLSWAKKVNTEVNMAVNLGTRGIDAARNLVEYCNHPKGSYWSDLRRSHGYEQPYGIKTWCLGNEMDGPWQIGHKTADEYGRLAAETAKVMKWVDPSIELVACGSSNSGMPTFIDWEAKVLEHTYEHVDYISLHTYYGNRDNNLPNYLARSMDLDHFIKSVAATCDYVKAKTRSKKTINLSLDEWNVWYHSNEADKKVEPWITARPILEDIYNFEDALLVGSLLITMLQHADRVKIACLAQLVNVIAPIMTEKGGEAWRQPIFYPYMHASVYGRGESLKPLISSPKYDCSDFTDVPYVDAAVVYSEEEETLTIFAVNKAEDQMETEISLRGFESYQIAEHIVLEHQDIKATNQHNRKNVVPHSNGSSSVSENGLTAHFTPLSWNVIRLKKQS
notes: full ORF, codon-optimised, N-terminal His-tag (pET-28a), E. coli BL21(DE3), Ni-NTA purified, approx. 60 kDa; GH51
- Km: 600 ± 80 µM
- kcat: 109 ± 8.6 s⁻¹
- kcat/Km: 182000 ± 6900 M⁻¹ s⁻¹

B2: BsAbfA (Bacillus subtilis subsp. subtilis str. 168; E173D) (protein)
chain: B1 chain with E173D
notes: as for B1
- Km: 200 ± 50 µM
- kcat: 0.5 s⁻¹
- kcat/Km: 2500 ± 60 M⁻¹ s⁻¹

B3: BsAbfA (Bacillus subtilis subsp. subtilis str. 168; E292Q) (protein)
chain: B1 chain with E292Q
notes: as for B1
- Km: 700 ± 90 µM
- kcat: 1.6 ± 0.04 s⁻¹
- kcat/Km: 2300 ± 50 M⁻¹ s⁻¹

B4: BsAbfA (Bacillus subtilis subsp. subtilis str. 168; E173Q) (protein)
chain: B1 chain with E173Q
notes: as for B1
- Km: 400 ± 70 µM
- kcat: 2.5 ± 2.1 s⁻¹
- kcat/Km: 6300 ± 90 M⁻¹ s⁻¹

B5: BsAbfA (Bacillus subtilis subsp. subtilis str. 168; E292D) (protein)
chain: B1 chain with E292D
notes: as for B1
- Km: 700 ± 60 µM
- kcat: 0.9 ± 0.05 s⁻¹
- kcat/Km: 1300 ± 30 M⁻¹ s⁻¹
